Molecular target: T1, ^15N-labelled ubiquitin (WT, untagged) (UniProt P0CG48 1-76, ^15N-labelled)
T1 construct: ubiquitin, the 76-residue mature protein; also called ^15N-ubiquitin; source: E. coli BL21 (DE3) in M9 medium with ^15N-ammonium chloride, purified (cation exchange, Superdex 75 SEC)
Test: NMR titration; ^1H-^15N HSQC of ^15N-ubiquitin titrated with unlabelled UBR4-UBL; 25 mM NaPi pH 7.0, 150 mM NaCl, 1 mM TCEP, 10% D2O; global fit of chemical shift perturbations to 1:1 binding
Conditions: both partners purified

B1: 6×His-tagged UBR4-UBL (residues 4340–4463) (domain or fragment, human, UniProt Q5T4S7-1 4340-4463, looked up)
chain: YPEENEVTEFFVTLEKDPQQEDFLQGRMPGNPYSSNEPGIGPLMRDIKNKICQDCDLVALLEDDSGMELLVNNKIISLDLPVAEVYKKVWCTTNEGEPMRIVYRMRGLLGDATEEFIESLDSTT
notes: UBR4 ubiquitin-like (UBL) domain, residues 4340–4463 of UniProt Q5T4S7-1; also called UBL domain; UBR4 UBL domain; source: E. coli BL21 (DE3), purified (Ni-NTA HisTrap FF, Superdex 75 SEC)
- Kd: 124 µM
